The labels stand for the following.
B1: 18F5-2 (antibody, V domains shown)
VH: QVQMQESGPGLVKPSGTLSLICAVSGGSISSSKWWSWVRQPPGKGLEWIGEIYHSGSTNYNPSLKSRVTISIDKSKNQFSLRLTSVTAADTAVYYCARGDVLLWFGGQGTLVTVSS
VL: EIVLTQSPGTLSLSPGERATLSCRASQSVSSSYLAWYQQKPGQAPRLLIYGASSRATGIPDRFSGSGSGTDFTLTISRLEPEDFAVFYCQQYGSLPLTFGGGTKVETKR
B2: 23C4-1-5 (antibody, V domains shown)
VH: QVQLQESGPGLVKPSGTLSLTCAVSGGSISSSNWWSWVRQPPGKGLEWIGEIYHSGSTTYNPSLKSRVTISVDKSKSQISLKLTSVTAADTAVYYCARGDVLLWFGGRGTLVTVSS
VL: EIVLTQSPGTLSLSPGERASLSCRASQSVSSNYLAWYQQKPGQTPRLLIYGASIRATGIPDRFSGSGSGTDFTLIISRLEPEDFAVYYCQQYSSSPITFGQGTRLEIKR
B3: 24E10-4 (antibody, V domains shown)
VH: QVQMQESGPGLVKPSGTLSLTCAVSGGSISSSKWWSWVRQPPGKGLEWIGEIYHSGSTNYNPSLKSRVTISIDKSKNQFSLRLTSVTAADTAVYYCARGDVLLWFGGQGTLVTVSS
VL: EIVLTQSPGTLSLSPGERATLSCWASQSVSSTYLAWYQQKPGQAPRLLIYGASIRATGIPDRFSGSGSGTDFTLTISSLEPEDFAVYYCQQYGSSPITFGQGTRLEIKR
B4: 26C3-4 (antibody, V domains shown)
VH: QVQLQESGPGLVKPSGTLSLTCDVSGGSISSSNWWSWVRQPPGKGLEWIGEIYHSGSTNYNPSLKSRVTISVDKSKNQVSLKLNSVTAADTAVYYCARGDILLWFGGQGTLVTVSS
VL: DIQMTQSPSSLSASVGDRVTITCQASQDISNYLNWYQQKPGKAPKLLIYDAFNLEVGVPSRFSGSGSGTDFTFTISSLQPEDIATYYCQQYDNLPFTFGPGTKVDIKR
B5: 1F10-12-3 (antibody, V domains shown)
VH: QVQLQESGPGLVKPSGTLSLTCAVSGGSISNSNWWNWVRQPPGRGLEWIGEIYHSGSTNYNPSLKSRVTISVDKSKNQFSLKLTSVTAADTAVYYCARYSTPFFDYWGQGNLVTVSS
VL: DIQMTQSPSSLSASVGDRVTITCRASQSISNYLNWYQQKQGKAPKLLIYGASSLQSGVPSRFSGSGSGTDFTLTINSLQPEDFATYCCQQSYNNPLTFGGGTKVEIKR
B6: 24F10-1 (antibody, V domains shown)
VH: QVQLQESGPGLVKPSGNLSLTCVVSGASIINNNWWTWVRQSPGKGLEWIGEIFHSGTTNYNPSLKNRVTISVDKAKNQFSLNLKSVTAADTAVYYCVAYVSGTYYNFDYWGQGTLVTVSS
VL: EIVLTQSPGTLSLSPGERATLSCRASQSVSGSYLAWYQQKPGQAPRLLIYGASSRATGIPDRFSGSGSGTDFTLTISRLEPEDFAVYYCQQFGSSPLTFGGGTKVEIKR
B7: 21F3-11 (antibody, V domains shown)
VH: QVQLQESGPGLVKPSGTLSLTCAVSGGSISSSNWWSWVRQPPGKGLEWIGEIYHGGSTNYNPSLKSRITISVDKSKNQFSLKLSSVTAADTAMYYCATLPGYSSGWFDSWGQGTLVTVSS
VL: EIVLMQSPGTLSLSPGERATLSCRASQSVSSSYLAWYQQKPGQAPSLLIYGASNRASGIPDRFSGSGSGTDFTLTITRLEPEDFAVYYCQQYGSSPLTFGGGTRVEIKR
B8: 30B1-3 (antibody, V domains shown)
VH: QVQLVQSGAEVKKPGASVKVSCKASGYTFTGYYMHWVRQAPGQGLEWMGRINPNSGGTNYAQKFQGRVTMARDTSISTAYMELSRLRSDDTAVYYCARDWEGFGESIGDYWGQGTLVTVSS
VL: EIVLTQSPGTLSLSPGERATFSCRASQSVSGSYLAWYQQKPGQAPRLLIHGASSRATGIPDRFSGSGSGTDFTLTISRLEPEDFAVYYCLQYGSSPLTFGGGTKVEIKR
B9: 20D2-12 (antibody, V domains shown)
VH: QVQLVESGGGLVKPGGSLRLSCAASGFTFSDYYMSWIRQAPGRGLEWISYISGSDSTIYYEDSVMGRFTISRDNAKNSLYLQMNSLRAEDTAVYYCARDRDVYGYSGYGYFDYWGQGTLVTVSS
VL: EIVLTQSPGTLSLSPGERATLSCRASQSVSSRYLAWYQQKPGQAPRLLIYGASNRATGMPDRFSGSGSGTDFTLTISRLEPEDFAVYYCQQYGSSPITFGQGTRLEIKR
B10: 14D3-7-3 (antibody, V domains shown)
VH: EVQLVESGGGLVKPGGSLRLSCAASGFTFSNAWMSWVRQAPGKGLEWVGRIKRKTDGGTTDYATPVKGRFTISRDASKNTLYLQMNSLKTEDTAVYYCTSAARRGYFDIWGRGTLVTVSS
VL: EIVLTQSPGTLSLSPGERATLSCRASQSVSSRYLAWYQQKPGQAPRLLIYGASNRATGMPDRFSGSGSGTDFTLTISRLEPEDFAMYYCQQYGSSPITFGQGTRLEIKR
B11: 16E4-10-5 (antibody, V domains shown)
VH: QVQLQESGPGLVKPSGTLSLTCDVSGGSISSSNWWSWVRQPPGKGLEWIGEIYHSGSTNYNPSLKSRVTISVDKSKNQVSLKLNSVTAADTAVYYCARGDILLWFGGQGTLVTVSS
VL: EIVLTQSPGTLSLSPGERATLSCRASQSVSSRYLAWYQQKPGQAPRLLIYGASNRATGMPDRFSGSGSGTDFTLTISRLEPEDFAVYYCQQYGSSPITFGQGTRLEIKR
B12: 29B8-3 (antibody, V domains shown)
VH: QVQLQESGPGLVKPSGTLSLTCAVSGVSISSSNWWSWVRQPPGKGLEWIGEIYHSGNTNYNPSLKSRVTISVDKSKNQFSLKLSSVTAADTAVYYCAETSTITTNYWGQGTLVTVSS
VL: DIQMTQSPSSLSASVGDRVTITCRASQTISSYLNWYQQKPGKAPKLLIYAASSLQSGVPSRFSGSESGTDFTLTISSLQPEDFATYYCQQTYSIPITFGQGTRLEIKR
B13: 20G6-7-1 (antibody, V domains shown)
VH: QVQLQESGPGLVKPSGTLSLTCAVSGGSISSSNWWSWVRQPPGKGLEWIGEIYHSGNTNYNPSLKSRVTISVDKSKNQFSLKLSSVTAADTAVYYCARGGTTFDYWGQGTLVTVSS
VL: EIVLMQYPGTLSLSSGERATLSCRASQSVSSRYLAWYQQKPGQAPRLLIYGASNRASGMPDRFSGSGSGTEFTLTISSLEPEDFAMYYCQQYGSSPITFGQGTRVEIKR
B14: 55H6-6 (antibody, V domains shown)
VH: QVQLVQSGAEVKKPGASVKVSCKASGYTFTSYGISWVRQAPGQGLEWMGWISAYNGHTNYAQKLQGRVTMTTDTSTNTAYMELWSLRSDDTAVYYCTSDYGDYWGQGTLVTVSS
VL: DVVVTQSPLSLPVTLGQPASISCRSSQSLVYSDGNTNLYWFQQRPGQSPRRLIYQVSNRDSGVPDRFSGSGSGTDFTLKISRVEAEDVGVYYCMQGTHWPPALTFGGGTEVEIKR
B15: 17D5-11 (antibody, V domains shown)
VH: QVQLQESGPGLVKPSETLSLTCAVSGGSINSTNWWSWVRQPPGKGLEWIGEIYHSGSTNYNPSLKSRVTISVDKSKNQFSLKLSSVTAADTAVYYCARGGAVALDYWGQGTLVTVSS
VL: EIVLTQSPGPLSLSPGDRATLSCRASQTVSSSYLAWYLQKPGQAPRLLIYGASIRATGIPDRFSGSGSGTDFTLTISRLEPEDFAVYYCQQYGNSPITFGQGTRLEIKR
B16: 21F9-12 (antibody, V domains shown)
VH: QVQLQESGPGLVKPSGTLSLTCAVSGGSISSYNWWSWVRQPPGKGLEWIGEIYHSGNTNYNPSLKSRVTISVDKSKNQFSLKLSSVTAADTAMYYCARDQDYYGSGNFYYWGQGTLVTVSS
VL: not shown
B17: 24F8-7 (antibody, V domains shown)
VH: QVQLQESGPGLVKPSGTLSLTCAVSGGSISSYNWWSWVRQPPGKGLEWIGEIYHSGSTNYNPSLKSRVTISVDKSKNQFSLKLSSVTAADTAVYYCARDEDYYGSGNYYHWGQGTLVTVSS
VL: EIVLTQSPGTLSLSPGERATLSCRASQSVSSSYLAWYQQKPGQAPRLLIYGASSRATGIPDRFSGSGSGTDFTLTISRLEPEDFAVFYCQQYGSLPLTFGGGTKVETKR
B18: 21D2-3 (antibody, V domains shown)
VH: QVQLVESGGGLVKPGGSLRLSCAASGFTFSDYYMSWIRQAPGKGLEWVSYISSSGTTIYCADSVKGRFTISRDNAKNSLYLQMNSLRAEDTAVYYCARDSSTWYEGNYFDYWGQGTLVTVSS
VL: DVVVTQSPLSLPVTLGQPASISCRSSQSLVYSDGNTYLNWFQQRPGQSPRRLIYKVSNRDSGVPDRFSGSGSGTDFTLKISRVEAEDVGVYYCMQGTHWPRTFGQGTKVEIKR

This test concerns the target T1, OX40 on OX40-overexpressing cells (OX40过表达细胞表面OX40) (UniProt P43489 29-277, limits assumed).
T1 construct: whole, on cells; The cell line and the construct of the overexpressing cells are not described; also called CD134; TNFRSF4
T1 sequence (looked up): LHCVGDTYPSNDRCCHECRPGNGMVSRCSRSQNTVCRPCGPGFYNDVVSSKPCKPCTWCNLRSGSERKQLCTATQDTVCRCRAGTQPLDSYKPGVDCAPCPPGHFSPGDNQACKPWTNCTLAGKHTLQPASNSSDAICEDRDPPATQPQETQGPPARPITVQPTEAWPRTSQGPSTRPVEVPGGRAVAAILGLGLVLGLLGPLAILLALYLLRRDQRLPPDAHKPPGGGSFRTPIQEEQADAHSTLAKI
Nature of the test: flow cytometry, hybridoma supernatant on OX40-overexpressing cells, goat anti-mouse IgG-PE.
For the molecule B1, the Y586通道PE荧光值 came to 432000.
On to B2, for which the Y586通道PE荧光值 is 63900.
Then B3, with 344000.
Molecule B4 gave a Y586通道PE荧光值 of 416000.
Turning to B5, the Y586通道PE荧光值 worked out at 170000.
Molecule B6 returned a Y586通道PE荧光值 of 274000.
B7 displayed a Y586通道PE荧光值 of 171000.
With B8, the Y586通道PE荧光值 was 208000.
Consider B9, for which the Y586通道PE荧光值 was 540000.
B10 displayed a Y586通道PE荧光值 of 274000.
As for B11, the figure is 377000; as for B12, 388000.
For the molecule B13, the Y586通道PE荧光值 worked out at 352000.
B14 showed a Y586通道PE荧光值 of 479000.
B15 showed a Y586通道PE荧光值 of 475000.
Consider B16, for which the Y586通道PE荧光值 was determined as 424000.
As to B17, the Y586通道PE荧光值 was determined as 437000.
B18 yielded a Y586通道PE荧光值 of 202000.

(Values after patent publication CN114106174A (SUZHOU SCENE MEDICAL SCIENCE AND TECH LIMITED COMPANY, dated 2022).)
